Results taken from patent publication US20140087995A1 (published 2014).
Like-named read-outs stand apart in the source and are kept apart here. Numbered stars: 1 amine (or outer) side, 2 acyl side, 3 side chain; on linkers, the order of the positions; unused ones are H or OH. Bridge positions count the residues as written; N and C are the ends. Side chains are listed from the residue outwards. Ends that are not written are not given here. * marks the point of attachment. C20 diacid = O=C(O)CCCCCCCCCCCCCCCCCCC(=O)*; γGlu = O=C(O)[C@H](CCC(=O)[*:2])N[*:1]; AEEA = NCCOCCOCC(=O)O

T1: human amylin 3(a) receptor (human calcitonin receptor plus RAMP-3) (human, UniProt P30988 25-474; O60896 24-148, limits assumed)
T1 construct: whole, on cells; Whole cells in the luciferase assay (Assay II a); also called hAmylin-R; human amylin receptor
T1 sequence (looked up) 1: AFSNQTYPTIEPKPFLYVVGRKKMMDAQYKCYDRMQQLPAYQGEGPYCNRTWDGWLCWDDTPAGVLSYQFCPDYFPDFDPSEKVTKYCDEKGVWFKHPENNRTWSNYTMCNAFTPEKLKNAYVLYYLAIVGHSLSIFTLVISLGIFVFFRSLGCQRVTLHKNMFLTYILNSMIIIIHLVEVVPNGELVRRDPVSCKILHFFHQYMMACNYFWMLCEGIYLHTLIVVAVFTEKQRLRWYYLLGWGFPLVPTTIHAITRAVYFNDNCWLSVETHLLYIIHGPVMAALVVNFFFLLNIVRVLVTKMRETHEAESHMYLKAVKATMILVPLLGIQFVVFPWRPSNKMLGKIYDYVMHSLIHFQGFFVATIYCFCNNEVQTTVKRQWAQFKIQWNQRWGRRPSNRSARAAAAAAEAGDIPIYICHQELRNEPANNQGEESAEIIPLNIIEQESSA
T1 sequence (looked up) 2: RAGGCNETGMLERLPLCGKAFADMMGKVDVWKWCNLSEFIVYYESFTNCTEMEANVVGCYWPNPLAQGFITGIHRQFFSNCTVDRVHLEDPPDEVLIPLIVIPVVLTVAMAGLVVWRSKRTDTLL

T2: human calcitonin receptor (human, UniProt P30988 25-474)
T2 sequence (looked up): T1 sequence (looked up) 1

T3: human amylin receptor (amylin 3(a) receptor: human calcitonin receptor co-expressed with RAMP-3) (human, UniProt P30988 25-474; O60896 24-148, limits assumed)
T3 sequence (looked up) 1: T1 sequence (looked up) 1
T3 sequence (looked up) 2: T1 sequence (looked up) 2

T4: human calcitonin receptor (human, UniProt P30988 25-474)
T4 sequence (looked up): T1 sequence (looked up) 1

B1: N^α1-[(4S)-4-carboxy-4-(19-carboxynonadecanoylamino)butanoyl]-[Glu14,Arg17,Pro21,Pro27]-h-amylin (peptide)
peptide: KCNTATCATQRLAEFLRHSSPNFGAIPSSTNVGSNTY
modifications: C20 diacid-gGlu on the alpha amino group of the N-terminal residue (position 1); disulfide bridge Cys2-Cys7; C-terminal amide
notes: also called compound 9
B2: N^-1-[(4S)-4-carboxy-4-(19-carboxynonadecanoylamino)butanoyl]-Gly[Arg1,Arg17,Pro21,Pro27,His35]-h-amylin (peptide)
peptide: {C20 diacid-γGlu}-GRCNTATCATQRLANFLRHSSPNFGAIPSSTNVGSHTY-NH2
modifications: disulfide 3-8
SMILES: CC[C@H](C)[C@H](NC(=O)[C@H](C)NC(=O)CNC(=O)[C@H](Cc1ccccc1)NC(=O)[C@H](CC(N)=O)NC(=O)[C@@H]1CCCN1C(=O)[C@H](CO)NC(=O)[C@H](CO)NC(=O)[C@H](Cc1c[nH]cn1)NC(=O)[C@H](CCCNC(=N)N)NC(=O)[C@H](CC(C)C)NC(=O)[C@H](Cc1ccccc1)NC(=O)[C@H](CC(N)=O)NC(=O)[C@H](C)NC(=O)[C@H](CC(C)C)NC(=O)[C@H](CCCNC(=N)N)NC(=O)[C@H](CCC(N)=O)NC(=O)[C@@H](NC(=O)[C@H](C)NC(=O)[C@@H]1CSSC[C@H](NC(=O)[C@H](CCCNC(=N)N)NC(=O)CNC(=O)CC[C@H](NC(=O)CCCCCCCCCCCCCCCCCCC(=O)O)C(=O)O)C(=O)N[C@@H](CC(N)=O)C(=O)N[C@@H]([C@@H](C)O)C(=O)N[C@@H](C)C(=O)N[C@@H]([C@@H](C)O)C(=O)N1)[C@@H](C)O)C(=O)N1CCC[C@H]1C(=O)N[C@@H](CO)C(=O)N[C@@H](CO)C(=O)N[C@H](C(=O)N[C@@H](CC(N)=O)C(=O)N[C@H](C(=O)NCC(=O)N[C@@H](CO)C(=O)N[C@@H](Cc1c[nH]cn1)C(=O)N[C@H](C(=O)N[C@@H](Cc1ccc(O)cc1)C(N)=O)[C@@H](C)O)C(C)C)[C@@H](C)O
notes: 38 residues: N-terminal extension by Gly (-1G); also called compound 47
B3: N^-1-[(4S)-4-carboxy-4-(19-carboxynonadecanoylamino)butanoyl]-Gly[Arg1,Arg17,Pro21,Pro27]-h-amylin (peptide)
peptide: {C20 diacid-γGlu}-GRCNTATCATQRLANFLRHSSPNFGAIPSSTNVGSNTY-NH2
modifications: disulfide 3-8
SMILES: CC[C@H](C)[C@H](NC(=O)[C@H](C)NC(=O)CNC(=O)[C@H](Cc1ccccc1)NC(=O)[C@H](CC(N)=O)NC(=O)[C@@H]1CCCN1C(=O)[C@H](CO)NC(=O)[C@H](CO)NC(=O)[C@H](Cc1c[nH]cn1)NC(=O)[C@H](CCCNC(=N)N)NC(=O)[C@H](CC(C)C)NC(=O)[C@H](Cc1ccccc1)NC(=O)[C@H](CC(N)=O)NC(=O)[C@H](C)NC(=O)[C@H](CC(C)C)NC(=O)[C@H](CCCNC(=N)N)NC(=O)[C@H](CCC(N)=O)NC(=O)[C@@H](NC(=O)[C@H](C)NC(=O)[C@@H]1CSSC[C@H](NC(=O)[C@H](CCCNC(=N)N)NC(=O)CNC(=O)CC[C@H](NC(=O)CCCCCCCCCCCCCCCCCCC(=O)O)C(=O)O)C(=O)N[C@@H](CC(N)=O)C(=O)N[C@@H]([C@@H](C)O)C(=O)N[C@@H](C)C(=O)N[C@@H]([C@@H](C)O)C(=O)N1)[C@@H](C)O)C(=O)N1CCC[C@H]1C(=O)N[C@@H](CO)C(=O)N[C@@H](CO)C(=O)N[C@H](C(=O)N[C@@H](CC(N)=O)C(=O)N[C@H](C(=O)NCC(=O)N[C@@H](CO)C(=O)N[C@@H](CC(N)=O)C(=O)N[C@H](C(=O)N[C@@H](Cc1ccc(O)cc1)C(N)=O)[C@@H](C)O)C(C)C)[C@@H](C)O
notes: 38 residues: N-terminal extension by Gly (-1G); also called compound 46
B4: N^ε-[2-[2-[2-[[(4S)-4-carboxy-4-(19-carboxynonadecanoylamino)butanoyl]amino]ethoxy]ethoxy]acetyl]Lys[Arg1,Arg17,Pro21,Pro27,His35]-h-amylin (peptide)
peptide: K([AEEA-γGlu-C20 diacid])RCNTATCATQRLANFLRHSSPNFGAIPSSTNVGSHTY-NH2
modifications: disulfide 3-8; N-terminus assumed
SMILES: CC[C@H](C)[C@H](NC(=O)[C@H](C)NC(=O)CNC(=O)[C@H](Cc1ccccc1)NC(=O)[C@H](CC(N)=O)NC(=O)[C@@H]1CCCN1C(=O)[C@H](CO)NC(=O)[C@H](CO)NC(=O)[C@H](Cc1c[nH]cn1)NC(=O)[C@H](CCCNC(=N)N)NC(=O)[C@H](CC(C)C)NC(=O)[C@H](Cc1ccccc1)NC(=O)[C@H](CC(N)=O)NC(=O)[C@H](C)NC(=O)[C@H](CC(C)C)NC(=O)[C@H](CCCNC(=N)N)NC(=O)[C@H](CCC(N)=O)NC(=O)[C@@H](NC(=O)[C@H](C)NC(=O)[C@@H]1CSSC[C@H](NC(=O)[C@H](CCCNC(=N)N)NC(=O)[C@@H](N)CCCCNC(=O)COCCOCCNC(=O)CC[C@H](NC(=O)CCCCCCCCCCCCCCCCCCC(=O)O)C(=O)O)C(=O)N[C@@H](CC(N)=O)C(=O)N[C@@H]([C@@H](C)O)C(=O)N[C@@H](C)C(=O)N[C@@H]([C@@H](C)O)C(=O)N1)[C@@H](C)O)C(=O)N1CCC[C@H]1C(=O)N[C@@H](CO)C(=O)N[C@@H](CO)C(=O)N[C@H](C(=O)N[C@@H](CC(N)=O)C(=O)N[C@H](C(=O)NCC(=O)N[C@@H](CO)C(=O)N[C@@H](Cc1c[nH]cn1)C(=O)N[C@H](C(=O)N[C@@H](Cc1ccc(O)cc1)C(N)=O)[C@@H](C)O)C(C)C)[C@@H](C)O
notes: 38 residues: N-terminal extension by Lys (-1K); also called compound 45
B5: N^ε1-[(4S)-4-carboxy-4-(19-carboxynonadecanoylamino)butanoyl]-[Arg17,Pro21,Pro27]-h-amylin (peptide)
peptide: K([γGlu-C20 diacid])CNTATCATQRLANFLRHSSPNFGAIPSSTNVGSNTY-NH2
modifications: disulfide 2-7; N-terminus assumed
SMILES: CC[C@H](C)[C@H](NC(=O)[C@H](C)NC(=O)CNC(=O)[C@H](Cc1ccccc1)NC(=O)[C@H](CC(N)=O)NC(=O)[C@@H]1CCCN1C(=O)[C@H](CO)NC(=O)[C@H](CO)NC(=O)[C@H](Cc1c[nH]cn1)NC(=O)[C@H](CCCNC(=N)N)NC(=O)[C@H](CC(C)C)NC(=O)[C@H](Cc1ccccc1)NC(=O)[C@H](CC(N)=O)NC(=O)[C@H](C)NC(=O)[C@H](CC(C)C)NC(=O)[C@H](CCCNC(=N)N)NC(=O)[C@H](CCC(N)=O)NC(=O)[C@@H](NC(=O)[C@H](C)NC(=O)[C@@H]1CSSC[C@H](NC(=O)[C@@H](N)CCCCNC(=O)CC[C@H](NC(=O)CCCCCCCCCCCCCCCCCCC(=O)O)C(=O)O)C(=O)N[C@@H](CC(N)=O)C(=O)N[C@@H]([C@@H](C)O)C(=O)N[C@@H](C)C(=O)N[C@@H]([C@@H](C)O)C(=O)N1)[C@@H](C)O)C(=O)N1CCC[C@H]1C(=O)N[C@@H](CO)C(=O)N[C@@H](CO)C(=O)N[C@H](C(=O)N[C@@H](CC(N)=O)C(=O)N[C@H](C(=O)NCC(=O)N[C@@H](CO)C(=O)N[C@@H](CC(N)=O)C(=O)N[C@H](C(=O)N[C@@H](Cc1ccc(O)cc1)C(N)=O)[C@@H](C)O)C(C)C)[C@@H](C)O
notes: also called compound 48

What was measured:
[1] = target: T1, human amylin 3(a) receptor (human …); assay: SPA competition binding, displacement of 125I-rat amylin from membranes of Amylin 3(a)/CRE-luc BHK cells (Assay V)
Experimental: The binding assay was performed using scintillation proximity assay (SPA) beads (RPNQ0001) from PerkinElmer and cell membranes from the Amylin 3(a)/CRE-luc cells (as described in Assay (II)) were used. Membranes were prepared in the following way; the cells were rinsed with PBS and incubated with Versene for approximately 5 min before harvesting. The cells were flushed with PBS and the cell-suspension was centrifuged for 5 min at 1000 rpm. Cells were homogenized (ultrathurrax) in a buffer containing 20 mM Na-HEPES and 10 mM EDTA (pH 7.4) and centrifuged at 20.000 rpm for 15 min. The resulting pellet was resuspended, homogenized and centrifuged (20.000 rpm, 15 min) in a buffer containing 20 mM Na-HEPES and 0.1 mM EDTA (pH 7.4, buffer 2). The resulting pellet was resuspended in buffer 2 and protein concentration was measured (BCA protein Assay, Pierce). The homogenate was kept cold during the whole procedure. The membranes were kept at −80° C. until use. The assay was performed in a 384 well Optiplate (PerkinElmer) in a total volume of 40 ul. Membranes were mixed with SPA beads. Final concentration of membranes 35 ng/μL final and SPA beads was 0.05 mg/well. Test-compounds were dissolved in DMSO and further diluted in assay buffer (50 mM Hepes, pH 7.4, 1 mM CaCl2, 5 mM MgCl₂, 0.1% OA and 0.02% Tween20). […] The final mixture was incubated with shaking at 400 rpm for 120 min at 25° C. prior to centrifugation (1500 rpm, 10 min). Samples were analyzed on TopCounter™ (Packard). The IC₅₀ was calculated using (one site binding competition analysis) GraphPad Prism5 as a measure of receptor affinity.

[2] = target: T2, human calcitonin receptor; assay: cell-based or functional assay
[3] = target: T1, human amylin 3(a) receptor (human …); assay: cell-based or functional assay
[4] = target: T3, human amylin receptor (amylin 3(a) …); assay: cell-based or functional assay
[5] = target: T4, human calcitonin receptor; assay: cell-based or functional assay; remark: listed apart in the source

Row | Binder | IC50 [1] [nM] | hCTR funct. EC50 [2] [nM] | Ratio hCT/hAmylin funct. [3] | hAmylin-R funct. EC50 [3] [nM] | hAmylin-R funct. EC50 [4] [nM] | Ratio hCT/hAmylin funct. (hCTR EC50 against hAmylin-R EC50) [5] | hCTR funct. EC50 [5] [nM]
1 | B1 | 0.143 | 1.29 | 7.4 | 0.175 | – | – | –
2 | B2 | – | – | – | – | 0.222 | 6 | 1.32
3 | B3 | – | – | – | – | 0.088 | 10.2 | 0.899
4 | B4 | – | – | – | – | 0.594 | 17 | 10.1
5 | B5 | – | – | – | – | 0.116 | 17 | 1.97
